According to US20260373285 (published 2026):
Read-outs that look alike come from different tables or passages of the source. Blank lines part the entries; values can stand above or below the binder they belong to.

Legend:
human Trop-2 (His) [1] = biological target: T1, human Trop-2 (His) (human, UniProt P09758); experiment: SPR
T1 chain: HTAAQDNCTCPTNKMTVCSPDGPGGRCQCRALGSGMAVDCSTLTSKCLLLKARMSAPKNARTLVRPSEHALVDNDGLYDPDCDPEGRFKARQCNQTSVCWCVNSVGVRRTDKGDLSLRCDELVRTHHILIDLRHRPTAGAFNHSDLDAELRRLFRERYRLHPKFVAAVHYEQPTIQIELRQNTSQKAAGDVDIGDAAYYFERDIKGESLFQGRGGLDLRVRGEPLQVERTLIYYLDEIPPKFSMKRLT

[2] = biological target: T2, human Trop-2 on MDA-MB-468 cells (human, UniProt P09758); experiment: FACS
T2 chain: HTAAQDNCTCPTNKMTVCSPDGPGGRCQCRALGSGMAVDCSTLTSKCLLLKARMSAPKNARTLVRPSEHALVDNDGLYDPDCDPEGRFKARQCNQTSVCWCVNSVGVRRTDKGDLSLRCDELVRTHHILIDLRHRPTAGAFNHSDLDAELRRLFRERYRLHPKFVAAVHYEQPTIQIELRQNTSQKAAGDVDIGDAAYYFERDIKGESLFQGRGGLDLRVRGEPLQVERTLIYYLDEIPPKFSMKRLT

human Trop-2 (His) [3] = biological target: T1, human Trop-2 (His); experiment: SPR
hPD-L1(ECD)-His = hPD-L1(ECD)-His (human, UniProt Q9NZQ7); experiment: SPR
hPD-L1(ECD)-His, sequence (Q9NZQ7 19-238): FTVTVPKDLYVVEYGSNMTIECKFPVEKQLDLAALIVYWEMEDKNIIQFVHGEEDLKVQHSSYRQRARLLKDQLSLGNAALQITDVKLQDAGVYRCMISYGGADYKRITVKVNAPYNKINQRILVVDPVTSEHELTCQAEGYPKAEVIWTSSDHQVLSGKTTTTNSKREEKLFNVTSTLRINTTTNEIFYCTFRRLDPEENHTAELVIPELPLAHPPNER

human Trop-2 (His) [4] = biological target: T1, human Trop-2 (His); experiment: SPR
human Trop-2 (His) [5] = biological target: T1, human Trop-2 (His); experiment: SPR

B2: ALGA105O Trop-2 arm (antibody, V domains shown)
V domain 1: EVQVVESGGGLVQPGGSLRLSCATSGYIFSNSGMGWYRQAPGKQRELVAAISSGGTTHYADSVKGRFTISRDNSKNTVYLQMNSLRAEDTAVYYCNGDRYYSGTDVFGSWGQGTLVTVSS
V domain 2: QVQLVESGGGLVQAGGSLRLSCAASDRTFSEYNADWFRQAPGKEREFVAAITWSGKNTRYADSVKGRFTVSRDNAKNTVYLQMNSLKPEDTAVYYCATDRWWAAGNWDGVDYWGKGTLVTVSS
Kd (human Trop-2 (His) [3]): 2.22 nM

B7: ALGA105S-ADC PD-L1 arm (antibody, V domains shown)
VH: EVQLVQSGAEVKKPGATVKISCKVSGFNIEDTYIYWVQQAPGKGLEWMGWIDPANYNTKYDPRFQDRVTITVDTSTDTAYMELSSLRSEDTAVYYCARGLRLLMDYWGQGTTVTVSS
VL: DIQLTQSPSFLSASVGDRVTITCKASQNVHTSLAWYQQKPGKSPKLLIYLASNRHTGVPSRFSGSGSGTEFTLTISSLQPEDFATYYCLQHWNYPLTFGQGTKLEIKR
modifications: exatecan drug-linker conjugate; full fusion SEQ67:SEQ68
Kd (hPD-L1(ECD)-His): 0.764 nM

B9: ALGA105M Trop-2 arm (antibody, V domains shown)
V domain 1: EVQVVESGGGLVQPGGSLRLSCATSGYIFSNSGMGWYRQAPGKQRELVAAISSGGTTHYADSVKGRFTISRDNSKNTVYLQMNSLRAEDTAVYYCNGDRYYSGTDVFGSWGQGTLVTVSS
V domain 2: EVQVVESGGGLVQPGGSLRLSCATSGYIFSNSGMGWYRQAPGKQRELVAAISSGGTTHYADSVKGRFTISRDNSKNTVYLQMNSLRAEDTAVYYCNGDRYYSGTDVFGSWGQGTLVTVSS
Kd (human Trop-2 (His) [3]): 99.4 nM

B10: ALGA105N Trop-2 arm (antibody, V domains shown)
V domain 1: EVQVVESGGGLVQPGGSLRLSCATSGYIFSNSGMGWYRQAPGKQRELVAAISSGGTTHYADSVKGRFTISRDNSKNTVYLQMNSLRAEDTAVYYCNGDRYYSGTDVFGSWGQGTLVTVSS
V domain 2: EVQVVESGGGLVQPGGSLRLSCTAPERIFSIYNMGWYRQAPGKEREWVAFLMEGGRIEYADSVKGRFTISRDNAKSTVYLQMNNLNAEDAAVYYCNAGGRSGYWGKGTLVTVSS
Kd (human Trop-2 (His) [3]): 0.668 nM

The next lines start with the values.

Kd (human Trop-2 (His) [1]): 68.9 nM
EC50 [2]: 0.279 µg/mL
B1: Trop-2-A-258hz5 (antibody, V domains shown)
VH: QVQLVESGGGLVQPGGSLRLSCAASDRTFSEYNADWFRQAPGKEREFVAAITWSGKNTRYADSVKGRFTVSRDNSKNTVYLQMNSLRPADTAVYYCATDRWWAAGNWDGVDYWGQGTLVTVSS

Kd (human Trop-2 (His) [3]): 2.76 nM
B3: ALGA105T Trop-2 arm (antibody, V domains shown)
V domain 1: QVQLVQSGGGLVQPGGSLRLSCAASDRTFSEYNADWFRQAPGKEREFVAAITWSGKNTRYADSVKGRFTVSRDNSKNTVYLQMNSLRAEDTAVYYCATDRWWAAGNWDGVDYWGQGTLVTVSS
V domain 2: EVQVVESGGGLVQPGGSLRLSCATSGYIFSNSGMGWYRQAPGKQRELVAAISSGGTTHYADSVKGRFTISRDNSKNTVYLQMNSLRAEDTAVYYCNGDRYYSGTDVFGSWGQGTLVTVSS

Kd (human Trop-2 (His) [1]): 99.2 nM
EC50 [2]: 8.7 µg/mL
B4: Trop-2-A-258hz3 (antibody, V domains shown)
VH: QVQLVESGGGLVQPGGSLRLSCAASDRTFSEYNADWFRQAPGKEREFVAAITWSGKNTRYADSVKGRFTVSRDNSKNTVYLQMNSLRAEDTAVYYCATDRWWAAGNWSGVDFWGQGTLVTVSS

Kd (human Trop-2 (His) [1]): 75.5 nM
EC50 [2]: 0.176 µg/mL
B5: Trop-2-A-258hz2 (antibody, V domains shown)
VH: QVQLVQSGGGLVQPGGSLRLSCAASDRTFSEYNADWFRQAPGKEREFVAAITWSGKNTRYADSVKGRFTVSRDNSKNTVYLQMNSLRAEDTAVYYCATDRWWAAGNWDGVDYWGQGTLVTVSS

Kd (human Trop-2 (His) [1]): 74.7 nM
EC50 [2]: 0.227 µg/mL
B6: Trop-2-A-258hz7 (antibody, V domains shown)
VH: QVQLVESGGGLVQPGGSLRLSCAASDRTFSEYNADWFRQAPGKEREFVAAITWSGKNTRYADSVKGRFTVSRDNSKNTVYLQMNSLRAEDTAVYYCATDRWWAAGNWDGVDYWGQGTLVTVSS

Kd (human Trop-2 (His) [4]): 20.1 nM
Kd (human Trop-2 (His) [5]): 20.1 nM
B8: Trop-2-B-YC-82 (antibody, V domains shown)
VH: EVQVVESGGGLVQPGGSLRLSCATSGYIFSNSGMGWYRQAPGKQRELVAAISSGGTTHYADSVKGRFTISRDNAKSTVYLQMNSLKPEDTAVYYCNGDRYYSGTDVFGSWGQGTQVTVSS
